One data set concerns the target AtPHR1 MYB-CC Olig2 (Arabidopsis thaliana, UniProt Q94CL7 222-358, L317N;L327N;I341N). In words: GCI; 4 C, 300 mM NaCl; GCI at 4 C: AtPHR1 in 20 mM HEPES pH 7.5, 300 mM NaCl; OsPHR2 in 20 mM HEPES pH 7.9, 200 mM NaCl. EMSA: LI-COR Odyssey kit buffer without optional components, 50 nM oligo, 30 min at room temperature, 5% TBE gel in 0.5x TBE. The following applies: protein: recombinant; tags: His6 N-terminal, TEV-cleaved; label: 5'-biotin on strand 1; blunt. (A gel shift assay detects complexes by their altered migration in electrophoresis.)

The next data set has as its target AtPHR1 MYB-CC Olig1 (Arabidopsis thaliana, UniProt Q94CL7 222-358, L319N;I333N;L337N). The experiment in a line: EMSA; indistinguishable from wild type; GCI at 4 C: AtPHR1 in 20 mM HEPES pH 7.5, 300 mM NaCl; OsPHR2 in 20 mM HEPES pH 7.9, 200 mM NaCl. EMSA: LI-COR Odyssey kit buffer without optional components, 50 nM oligo, 30 min at room temperature, 5% TBE gel in 0.5x TBE. To be noted: protein: recombinant; tags: His6 N-terminal, TEV-cleaved; label: 5'-IRD800 on both strands; blunt.

AtPHR1 MYB-CC Olig1, sequence (Q94CL7 222-358 L319N/I333N/L337N): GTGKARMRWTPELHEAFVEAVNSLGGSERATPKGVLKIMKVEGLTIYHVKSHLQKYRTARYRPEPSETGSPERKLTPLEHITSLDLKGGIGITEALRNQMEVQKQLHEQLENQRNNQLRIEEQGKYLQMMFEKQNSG
AtPHR1 MYB-CC Olig2, sequence (Q94CL7 222-358 L317N/L327N/I341N): as the sequence (Q94CL7 222-358 L319N/I333N/L337N) above, with L96N, N98L, L106N, N112I, N116L, I120N counted along it

B1: pAtSPX1 biotin (dsDNA)
DNA 1: CAGAGAAAAAAGGATATTCTAATTAGAAACCTTAAGAATATTCTTTTTAATCCC
DNA 2: GGGATTAAAAAGAATATTCTTAAGGTTTCTAATTAGAATATCCTTTTTTCTCTG
Turning to B1, the binding signal with AtPHR1 MYB-CC Olig2 is ~20 fold reduced affinity vs wild type.

B2: IRD800-pAtSPX1 (dsDNA)
DNA 1: CAGAGAAAAAAGGATATTCTAATTAGAAACCTTAAGAATATTCTTTTTAATCCC
DNA 2: GGGATTAAAAAGAATATTCTTAAGGTTTCTAATTAGAATATCCTTTTTTCTCTG
On to B2, for which the binding result with AtPHR1 MYB-CC Olig1 is “binds”.

For the origin of these results see paper PMC7810988, “Inositol pyrophosphates promote the interaction of SPX domains with the coiled-coil motif of PHR transcription factors to regulate plant phosphate homeostasis”.
